Numbered stars: 1 amine (or outer) side, 2 acyl side, 3 side chain; on linkers, the order of the positions; unused ones are H or OH. Bridge positions count the residues as written; N and C are the ends. Side chains are listed from the residue outwards. Ends that are not written are not given here. * marks the point of attachment. C20 diacid = O=C(O)CCCCCCCCCCCCCCCCCCC(=O)*; γGlu = O=C(O)[C@H](CCC(=O)[*:2])N[*:1]
T1: human calcitonin receptor (human, UniProt P30988 25-474)
T1 construct: whole, on cells; Assayed as cell membranes of BHK tk'ts 13 cells stably transfected with the human calcitonin receptor (Assay VII); also called hCTR; hCT
T1 sequence (looked up): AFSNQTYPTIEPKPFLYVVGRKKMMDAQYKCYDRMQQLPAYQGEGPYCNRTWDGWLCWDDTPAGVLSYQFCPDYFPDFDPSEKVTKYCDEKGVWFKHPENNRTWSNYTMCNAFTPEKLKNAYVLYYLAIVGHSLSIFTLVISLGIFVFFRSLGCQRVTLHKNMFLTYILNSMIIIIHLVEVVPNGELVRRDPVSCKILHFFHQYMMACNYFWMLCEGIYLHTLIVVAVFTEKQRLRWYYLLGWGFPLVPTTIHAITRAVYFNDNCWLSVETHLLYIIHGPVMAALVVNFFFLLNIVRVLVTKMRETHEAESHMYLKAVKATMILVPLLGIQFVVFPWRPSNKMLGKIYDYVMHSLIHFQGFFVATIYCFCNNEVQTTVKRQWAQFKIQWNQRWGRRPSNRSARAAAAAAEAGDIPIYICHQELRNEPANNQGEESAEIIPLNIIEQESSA

B1: N^ε1-[(4S)-4-carboxy-4-(19-carboxynonadecanoylamino)butanoyl]-[His14,Arg17,Pro21,Pro27,His35]-h-amylin (peptide)
peptide: K([γGlu-C20 diacid])CNTATCATQRLAHFLRHSSPNFGAIPSSTNVGSHTY-NH2
modifications: disulfide 2-7; N-terminus assumed
SMILES: CC[C@H](C)[C@H](NC(=O)[C@H](C)NC(=O)CNC(=O)[C@H](Cc1ccccc1)NC(=O)[C@H](CC(N)=O)NC(=O)[C@@H]1CCCN1C(=O)[C@H](CO)NC(=O)[C@H](CO)NC(=O)[C@H](Cc1c[nH]cn1)NC(=O)[C@H](CCCNC(=N)N)NC(=O)[C@H](CC(C)C)NC(=O)[C@H](Cc1ccccc1)NC(=O)[C@H](Cc1c[nH]cn1)NC(=O)[C@H](C)NC(=O)[C@H](CC(C)C)NC(=O)[C@H](CCCNC(=N)N)NC(=O)[C@H](CCC(N)=O)NC(=O)[C@@H](NC(=O)[C@H](C)NC(=O)[C@@H]1CSSC[C@H](NC(=O)[C@@H](N)CCCCNC(=O)CC[C@H](NC(=O)CCCCCCCCCCCCCCCCCCC(=O)O)C(=O)O)C(=O)N[C@@H](CC(N)=O)C(=O)N[C@@H]([C@@H](C)O)C(=O)N[C@@H](C)C(=O)N[C@@H]([C@@H](C)O)C(=O)N1)[C@@H](C)O)C(=O)N1CCC[C@H]1C(=O)N[C@@H](CO)C(=O)N[C@@H](CO)C(=O)N[C@H](C(=O)N[C@@H](CC(N)=O)C(=O)N[C@H](C(=O)NCC(=O)N[C@@H](CO)C(=O)N[C@@H](Cc1c[nH]cn1)C(=O)N[C@H](C(=O)N[C@@H](Cc1ccc(O)cc1)C(N)=O)[C@@H](C)O)C(C)C)[C@@H](C)O
notes: also called compound 66
B2: N^ε1-[(4S)-4-carboxy-4-[[(4S)-4-carboxy-4-(19-carboxynonadecanoylamino)butanoyl]amino]butanoyl]-[Glu14,Arg17,Pro21,Pro27,Arg34]-h-amylin (peptide)
peptide: K([γGlu-γGlu-C20 diacid])CNTATCATQRLAEFLRHSSPNFGAIPSSTNVGRNTY-NH2
modifications: disulfide 2-7; N-terminus assumed
SMILES: CC[C@H](C)[C@H](NC(=O)[C@H](C)NC(=O)CNC(=O)[C@H](Cc1ccccc1)NC(=O)[C@H](CC(N)=O)NC(=O)[C@@H]1CCCN1C(=O)[C@H](CO)NC(=O)[C@H](CO)NC(=O)[C@H](Cc1c[nH]cn1)NC(=O)[C@H](CCCNC(=N)N)NC(=O)[C@H](CC(C)C)NC(=O)[C@H](Cc1ccccc1)NC(=O)[C@H](CCC(=O)O)NC(=O)[C@H](C)NC(=O)[C@H](CC(C)C)NC(=O)[C@H](CCCNC(=N)N)NC(=O)[C@H](CCC(N)=O)NC(=O)[C@@H](NC(=O)[C@H](C)NC(=O)[C@@H]1CSSC[C@H](NC(=O)[C@@H](N)CCCCNC(=O)CC[C@H](NC(=O)CC[C@H](NC(=O)CCCCCCCCCCCCCCCCCCC(=O)O)C(=O)O)C(=O)O)C(=O)N[C@@H](CC(N)=O)C(=O)N[C@@H]([C@@H](C)O)C(=O)N[C@@H](C)C(=O)N[C@@H]([C@@H](C)O)C(=O)N1)[C@@H](C)O)C(=O)N1CCC[C@H]1C(=O)N[C@@H](CO)C(=O)N[C@@H](CO)C(=O)N[C@H](C(=O)N[C@@H](CC(N)=O)C(=O)N[C@H](C(=O)NCC(=O)N[C@@H](CCCNC(=N)N)C(=O)N[C@@H](CC(N)=O)C(=O)N[C@H](C(=O)N[C@@H](Cc1ccc(O)cc1)C(N)=O)[C@@H](C)O)C(C)C)[C@@H](C)O
notes: also called compound 88
B3: N^ε1-[(4S)-4-carboxy-4-[[(4S)-4-carboxy-4-(19-carboxynonadecanoylamino)butanoyl]amino]butanoyl]-[Glu14,Arg17,Pro21,Pro27,Arg35]-h-amylin (peptide)
peptide: K([γGlu-γGlu-C20 diacid])CNTATCATQRLAEFLRHSSPNFGAIPSSTNVGSRTY-NH2
modifications: disulfide 2-7; N-terminus assumed
SMILES: CC[C@H](C)[C@H](NC(=O)[C@H](C)NC(=O)CNC(=O)[C@H](Cc1ccccc1)NC(=O)[C@H](CC(N)=O)NC(=O)[C@@H]1CCCN1C(=O)[C@H](CO)NC(=O)[C@H](CO)NC(=O)[C@H](Cc1c[nH]cn1)NC(=O)[C@H](CCCNC(=N)N)NC(=O)[C@H](CC(C)C)NC(=O)[C@H](Cc1ccccc1)NC(=O)[C@H](CCC(=O)O)NC(=O)[C@H](C)NC(=O)[C@H](CC(C)C)NC(=O)[C@H](CCCNC(=N)N)NC(=O)[C@H](CCC(N)=O)NC(=O)[C@@H](NC(=O)[C@H](C)NC(=O)[C@@H]1CSSC[C@H](NC(=O)[C@@H](N)CCCCNC(=O)CC[C@H](NC(=O)CC[C@H](NC(=O)CCCCCCCCCCCCCCCCCCC(=O)O)C(=O)O)C(=O)O)C(=O)N[C@@H](CC(N)=O)C(=O)N[C@@H]([C@@H](C)O)C(=O)N[C@@H](C)C(=O)N[C@@H]([C@@H](C)O)C(=O)N1)[C@@H](C)O)C(=O)N1CCC[C@H]1C(=O)N[C@@H](CO)C(=O)N[C@@H](CO)C(=O)N[C@H](C(=O)N[C@@H](CC(N)=O)C(=O)N[C@H](C(=O)NCC(=O)N[C@@H](CO)C(=O)N[C@@H](CCCNC(=N)N)C(=O)N[C@H](C(=O)N[C@@H](Cc1ccc(O)cc1)C(N)=O)[C@@H](C)O)C(C)C)[C@@H](C)O
notes: also called compound 89
B4: N^ε1-[(4S)-4-carboxy-4-(19-carboxynonadecanoylamino)butanoyl]-[His14,Arg17,Pro21,Pro27,Pro31]-h-amylin (peptide)
peptide: K([γGlu-C20 diacid])CNTATCATQRLAHFLRHSSPNFGAIPSSTPVGSNTY-NH2
modifications: disulfide 2-7; N-terminus assumed
SMILES: CC[C@H](C)[C@H](NC(=O)[C@H](C)NC(=O)CNC(=O)[C@H](Cc1ccccc1)NC(=O)[C@H](CC(N)=O)NC(=O)[C@@H]1CCCN1C(=O)[C@H](CO)NC(=O)[C@H](CO)NC(=O)[C@H](Cc1c[nH]cn1)NC(=O)[C@H](CCCNC(=N)N)NC(=O)[C@H](CC(C)C)NC(=O)[C@H](Cc1ccccc1)NC(=O)[C@H](Cc1c[nH]cn1)NC(=O)[C@H](C)NC(=O)[C@H](CC(C)C)NC(=O)[C@H](CCCNC(=N)N)NC(=O)[C@H](CCC(N)=O)NC(=O)[C@@H](NC(=O)[C@H](C)NC(=O)[C@@H]1CSSC[C@H](NC(=O)[C@@H](N)CCCCNC(=O)CC[C@H](NC(=O)CCCCCCCCCCCCCCCCCCC(=O)O)C(=O)O)C(=O)N[C@@H](CC(N)=O)C(=O)N[C@@H]([C@@H](C)O)C(=O)N[C@@H](C)C(=O)N[C@@H]([C@@H](C)O)C(=O)N1)[C@@H](C)O)C(=O)N1CCC[C@H]1C(=O)N[C@@H](CO)C(=O)N[C@@H](CO)C(=O)N[C@H](C(=O)N1CCC[C@H]1C(=O)N[C@H](C(=O)NCC(=O)N[C@@H](CO)C(=O)N[C@@H](CC(N)=O)C(=O)N[C@H](C(=O)N[C@@H](Cc1ccc(O)cc1)C(N)=O)[C@@H](C)O)C(C)C)[C@@H](C)O
notes: also called compound 62
B5: N^ε1-[(4S)-4-carboxy-4-[[(4S)-4-carboxy-4-(19-carboxynonadecanoylamino)butanoyl]amino]butanoyl]-[Glu14,Arg17,Pro21,Pro27,His34]-h-amylin (peptide)
peptide: K([γGlu-γGlu-C20 diacid])CNTATCATQRLAEFLRHSSPNFGAIPSSTNVGHNTY-NH2
modifications: disulfide 2-7; N-terminus assumed
SMILES: CC[C@H](C)[C@H](NC(=O)[C@H](C)NC(=O)CNC(=O)[C@H](Cc1ccccc1)NC(=O)[C@H](CC(N)=O)NC(=O)[C@@H]1CCCN1C(=O)[C@H](CO)NC(=O)[C@H](CO)NC(=O)[C@H](Cc1c[nH]cn1)NC(=O)[C@H](CCCNC(=N)N)NC(=O)[C@H](CC(C)C)NC(=O)[C@H](Cc1ccccc1)NC(=O)[C@H](CCC(=O)O)NC(=O)[C@H](C)NC(=O)[C@H](CC(C)C)NC(=O)[C@H](CCCNC(=N)N)NC(=O)[C@H](CCC(N)=O)NC(=O)[C@@H](NC(=O)[C@H](C)NC(=O)[C@@H]1CSSC[C@H](NC(=O)[C@@H](N)CCCCNC(=O)CC[C@H](NC(=O)CC[C@H](NC(=O)CCCCCCCCCCCCCCCCCCC(=O)O)C(=O)O)C(=O)O)C(=O)N[C@@H](CC(N)=O)C(=O)N[C@@H]([C@@H](C)O)C(=O)N[C@@H](C)C(=O)N[C@@H]([C@@H](C)O)C(=O)N1)[C@@H](C)O)C(=O)N1CCC[C@H]1C(=O)N[C@@H](CO)C(=O)N[C@@H](CO)C(=O)N[C@H](C(=O)N[C@@H](CC(N)=O)C(=O)N[C@H](C(=O)NCC(=O)N[C@@H](Cc1c[nH]cn1)C(=O)N[C@@H](CC(N)=O)C(=O)N[C@H](C(=O)N[C@@H](Cc1ccc(O)cc1)C(N)=O)[C@@H](C)O)C(C)C)[C@@H](C)O
notes: also called compound 87
B6: N^ε1-[(4S)-4-carboxy-4-[[(4S)-4-carboxy-4-(19-carboxynonadecanoylamino)butanoyl]amino]butanoyl]-[Arg17,Pro21,Pro27,His34]-h-amylin (peptide)
peptide: K([γGlu-γGlu-C20 diacid])CNTATCATQRLANFLRHSSPNFGAIPSSTNVGHNTY-NH2
modifications: disulfide 2-7; N-terminus assumed
SMILES: CC[C@H](C)[C@H](NC(=O)[C@H](C)NC(=O)CNC(=O)[C@H](Cc1ccccc1)NC(=O)[C@H](CC(N)=O)NC(=O)[C@@H]1CCCN1C(=O)[C@H](CO)NC(=O)[C@H](CO)NC(=O)[C@H](Cc1c[nH]cn1)NC(=O)[C@H](CCCNC(=N)N)NC(=O)[C@H](CC(C)C)NC(=O)[C@H](Cc1ccccc1)NC(=O)[C@H](CC(N)=O)NC(=O)[C@H](C)NC(=O)[C@H](CC(C)C)NC(=O)[C@H](CCCNC(=N)N)NC(=O)[C@H](CCC(N)=O)NC(=O)[C@@H](NC(=O)[C@H](C)NC(=O)[C@@H]1CSSC[C@H](NC(=O)[C@@H](N)CCCCNC(=O)CC[C@H](NC(=O)CC[C@H](NC(=O)CCCCCCCCCCCCCCCCCCC(=O)O)C(=O)O)C(=O)O)C(=O)N[C@@H](CC(N)=O)C(=O)N[C@@H]([C@@H](C)O)C(=O)N[C@@H](C)C(=O)N[C@@H]([C@@H](C)O)C(=O)N1)[C@@H](C)O)C(=O)N1CCC[C@H]1C(=O)N[C@@H](CO)C(=O)N[C@@H](CO)C(=O)N[C@H](C(=O)N[C@@H](CC(N)=O)C(=O)N[C@H](C(=O)NCC(=O)N[C@@H](Cc1c[nH]cn1)C(=O)N[C@@H](CC(N)=O)C(=O)N[C@H](C(=O)N[C@@H](Cc1ccc(O)cc1)C(N)=O)[C@@H](C)O)C(C)C)[C@@H](C)O
notes: also called compound 86

target: T1, human calcitonin receptor; assay: SPA competition vs 125I-calcitonin, membranes of BHK cells with human calcitonin receptor (Assay VII)
Procedure, shortened: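 BHK hCTR membranes 35 ng/μL + SPA beads 0.05 mg/well; buffer 50 mM Hepes pH 7.4, 1 mM CaCl2, 5 mM MgCl₂, 0.1% OA, 0.02% Tween20. 120 min, 25° C., shaking. Scintillation count; IC50 by one-site binding competition.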

Point of comparison: B2, IC50 34.9 nM. Against it:
- B1 — 1.9-fold lower, 18 nM
- B3 — within 1.5-fold, 32.5 nM
- B4 — 5.7-fold lower, 6.17 nM
- B5 — 1.6-fold lower, 22.5 nM
- B6 — 3.8-fold higher, 133 nM

target: T1, human calcitonin receptor; assay: IC50 at hCTR divided by IC50 at hAmylin-R (SPA competition assays V and VII)
Procedure, shortened: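 IC₅₀ values were derived by one-site competition analysis of SPA counts. Cell membranes (35 ng/μL) with SPA beads were incubated with test compounds for 120 min at 25° C in Hepes buffer, pH 7.4, containing CaCl2, MgCl₂, OA and Tween20.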

Point of comparison: B1, “Ratio hCT/hAmylin binding” value 45.5. Against it:
- B2 — higher, 46.5
- B3 — lower, 28
- B4 — higher, 63
- B5 — lower, 35.6
- B6 — higher, 159

From patent US20140087995A1 (published 2014)
